This note sets out measurements from the nanobody polyreactivity screen of Harvey et al. (2022).

The nature of this data set: yeast display, Sf9 membrane polyspecificity reagent, FACS + sequencing; frameworks hold sequencing errors. Put shortly: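 Using colony PCR, genes from sorted yeast display clones were amplified, then sequenced on MiSeq at 2 × 250 and filtered by CDR length. The clones had been stained with 10% biotinylated, detergent-solubilized Sf9 membrane reagent for 1 hour at 4 °C and sorted by FACS into low and high (top ~1%) gates on anti-HA and streptavidin fluorescence. Polyreactivity labels come from the gate of origin.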
In the case of “QVQLVESGGGLVQAGGSLRISCAASGRTFRKYAMGWYRQAPGKERELVAAISWSGGSTYYANSVKGRFTISRDNAKNTVYLQMNSLKPEDTAVYYCAAVPVHTGSLYWGFTSGYDYWGQGTQVTVSS”, the “polyreactivity (PSR sort gate)” value was “low polyreactivity”.

Consider “QVQLVESGGGLVQAGGSLRISCAASGRTFVRYAMGWYRQAPGKERELVAAIDSSGGRTYYADSVKGRFTISRDKAKNTVYLQMNSLKPEDTAVYYCNARRLASYRGYSWGQGTQVTVSS”, for which the “polyreactivity (PSR sort gate)” value is listed as “high polyreactivity”.

Consider “QVQLVESGGGLVQAGGSLRISCAASGRTFWRNAMGWYRQAPAKERELVAAISRGGSTNYADSVKGRFTISRDNAKNTVYLQMNSLKPEDTAVYYCAARYYYRYNYWGQGTQVTVSS”, for which the “polyreactivity (PSR sort gate)” value is given as “high polyreactivity”.

For “QVQLVESGGGLVQAGGSLRISCAASGRTLRPNAMGWYRQAPGKERELVAAITWSGGRTYYADSVKGRFTISRDNAKNTVYLQMNSLKPGDTAVYYCAADYGYYRGGVYFQKLKFDYWGQGTQVTVSS”, the “polyreactivity (PSR sort gate)” value was “high polyreactivity”.

Regarding “QVQLVESGGGLVQAGGSLRISCAASGSIFGSYTMGWYRQAPGKERELVAVINWSGDRTYYADSVKGRFTISRDNAKNTVYLQMNSLKPEDTAVYYCAARERAGYSRIRYNYWGQGTQVTVSS”, the “polyreactivity (PSR sort gate)” value is “low polyreactivity”.

In the case of “QVQLVESGGGLVQAGGSLRISCAASGSIFGVNAMGWYRQAPGKERELVASITGGDSTNYADSVKGRFTISRDNAKNTVYLQMNSLKPEDNEVYYCAKDHYYRYEEGDYWGQATQVTVSS”, the “polyreactivity (PSR sort gate)” value is “low polyreactivity”.

Regarding “QVQLVESGGGLVQAGGSLRISCAASGSIFHFNAMGWYRQAPGKERELVARISIGGGSTYYADSVKGRFTISRDNAKNTVYFQMKSLKPEDTAVYYCGVDGSPRYKYDYWGQGTQVNVSS”, the “polyreactivity (PSR sort gate)” value is listed as “high polyreactivity”.

Take “QVQLVESGGGLVQAGGSLRISCAASGSIFPAYDMGWYRQAPGKERELVAAITRGGSTDYADSVNGRFTISRDNAKNTVYLQMNSLKPEDTAVYFCAKRGYYYYHYVSGKPEDYWGQGTQVTVSS”: the “polyreactivity (PSR sort gate)” value is on record as “low polyreactivity”.

Take “QVQLVESGGGLVQAGGSLRISCAASGSIFPRYAMGWYRQAPGTERELVATISASGTDTYYADSVKGRFTISRDNAKNTVYLQMNSLKPEDTAVYYCAAGGYPGGEDYWGQGTQVTVSS”: the “polyreactivity (PSR sort gate)” value is “low polyreactivity”.

Consider “QVQLVESGGGLVQAGGSLRISCAASGSIFRNYAMGWYRQAPGKERELVAAISRNGGTTYYADSVKGRFTISRDNAKNTVYLQMNSLKPEDTAVYYCARLYYTQKDSKTGYGYWGQGTQVTVSS”, for which the “polyreactivity (PSR sort gate)” value is listed as “high polyreactivity”.

“QVQLVESGGGLVQAGGSLRISCAASGSIFSYYAMGWYRQAPGTERELVAAITRGGTTYYADSVKGRFTISRDNAKNTVYLQMNSLKPEDTAVYYCAVYYYSGTAGYRYGYWGQGTQVTVSS”: the “polyreactivity (PSR sort gate)” value was “high polyreactivity”.

For “QVQLVESGGGLVQAGGSLRISCAASGSIFVTNAMGWYRQAPGKERELVAAISSGGNTNYADSVKGLFTISRDNAKNTVYLQMNSLKPEDTAVYYCAKDPDKVDYVDMDYWGQGTQVTVSS”, the “polyreactivity (PSR sort gate)” value is “low polyreactivity”.

On to “QVQLVESGGGLVQAGGSLRISCAASGSIFVYYGMGWYRQAPGKERELVAAISSGGSTHYADSVKGRFTISRDNAKNTVYLQMNSLKPEDTAVYYCAAERFFWLRSYPRYYYWGQGTQVTVSS”, for which the “polyreactivity (PSR sort gate)” value is reported as “low polyreactivity”.

As for “QVQLVESGGGLVQAGGSLRISCAASGSIYSAYVMGWYRQAPGKERELVSAITRSGGSTYYADSVKGRFTISRDNAKNTVYFQMNSLKPEDTAVYYCAVDYLLHYYSYIEDYWGQGTQVTVSS”, the “polyreactivity (PSR sort gate)” value is on record as “low polyreactivity”.

On to “QVQLVESGGGLVQAGGSLRISCAASGSIYWDNAMGWYRQAPGQESELVAAITSSGDTTYYADSVKGRFTISRDNAKNTVYLQMNSQKPEDTAVYYCAADYYTAYYVTLDYWGQGTQVTVSS”, for which the “polyreactivity (PSR sort gate)” value is “low polyreactivity”.

Take “QVQLVESGGGLVQAGGSLRISCAASGSNFIRYAKGWYRQAPGKEMELVAAIRWSAGSTSYADSVKGRFTISRDNAKNTVYLQMNSLKPEDTAVYYCAAGPDYGWRRYDYWGQGTQVTVSS”: the “polyreactivity (PSR sort gate)” value was “low polyreactivity”.
